Results taken from the supplement of paper PMC10567573.
± gives the standard deviation.

Experiment: protein stability index of a GFP-peptide fusion (GPS, HEK-293T) (PSI 1-6); higher = more stable
[1] = treatment: DMSO, c terminus: a fixed tail appended
[2] = treatment: MLN4924 1 uM, 8 h, c terminus: a fixed tail appended
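Further: 24-mer peptide tiles fused after GFP, lentivirally expressed, FACS-sorted into six equal bins by GFP/DsRed ratio, decoded by Illumina sequencing, PSI is the read-weighted mean bin number.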

VRGLYDFYLPREELWIYNMETGRW [KLHDC2]
protein stability index [1]: 2.57 ± 0.39
protein stability index [2]: 2.24 ± 0.48

YDVKYLMKSCKNLKGGLQEVAEQL [CNOT7]
protein stability index [1]: 2.61 ± 0.43
protein stability index [2]: 2.98 ± 0.33

PVTRNERHSYQVYRQPIPVQELVL [NET1]
protein stability index [1]: 2.79 ± 0.23
protein stability index [2]: 2.88 ± 0.23

ILWDTLLRLCAWGLASWPLARGIH [POMT2]
protein stability index [1]: 2.823 ± 0.003
protein stability index [2]: 3.27 ± 1.2

MRQRISRVEESALRALREKLFAHS [PPEF2]
protein stability index [1]: 2.72 ± 0.24
protein stability index [2]: 2.71 ± 0.33

LSESETGPMEEVERQVLPDPEVLE [PBXIP1]
protein stability index [1]: 5.6 ± 0.31
protein stability index [2]: 5.61 ± 0.16

RTANPSKTIDLGAAAHYTGDKASP [CLINT1]
protein stability index [1]: 4.99 ± 0.27
protein stability index [2]: 4.93 ± 0.083

PSLLELAWEKLLAAFPNLANLSRT [KLHDC10]
protein stability index [1]: 2.56 ± 0.21
protein stability index [2]: 2.55 ± 0.24

NTELEVKIRDWYQRQAPGPARDYS [KRT17]
protein stability index [1]: 3.4 ± 0.35
protein stability index [2]: 3.48 ± 0.41

RLWSHRSYKARLPLRLFLIIANTM [SCD]
protein stability index [1]: 2.29 ± 0.54
protein stability index [2]: 2.13 ± 0.23

GELRRRPGDMKTKMELLILETQAQ [CPOX]
protein stability index [1]: 3.34 ± 0.18
protein stability index [2]: 3.43 ± 0.26

QPVSLRRRKREVLVEDMVSQEEAQ [ZNF24]
protein stability index [1]: 5.07 ± 0.25
protein stability index [2]: 5.34 ± 0.33

TMLATRNFSAAKSLLNKKADGVKP [CAMK2B]
protein stability index [1]: 3.73 ± 0.34
protein stability index [2]: 4.02 ± 0.32

LTLCKSDLESQVESLREELICLKK [KRT34]
protein stability index [1]: 2.89 ± 0.87
protein stability index [2]: 2.65 ± 0.27

QEQEIDGKSLLLMTRNDVLTGLQL [SAMD13]
protein stability index [1]: 3.23 ± 0.23
protein stability index [2]: 3.36 ± 0.24

TSSLAQPGAYYPYERTLGQYQYER [IRX6]
protein stability index [1]: 3.25 ± 0.38
protein stability index [2]: 3.22 ± 0.21

AEIPDGPPVVAHYDMSDTNSDPEV [C18orf25]
protein stability index [1]: 5.65 ± 0.21
protein stability index [2]: 5.48 ± 0.23

LRMMVENIMNKEAFMNQEITKAFH [RHOBTB1]
protein stability index [1]: 2.28 ± 0.5
protein stability index [2]: 2.2 ± 0.24

KLFSTYLRPPHTSRGTSQTPNASS [LPCAT4]
protein stability index [1]: 3.17 ± 0.19
protein stability index [2]: 3.08 ± 0.32

SSGRRVSLHCLLDQFDKDLPVYLK [DENND6A]
protein stability index [1]: 2.35 ± 0.45
protein stability index [2]: 2.4 ± 0.45

AESRGHSKGWGRNYASIIRRDCMW [MYCL]
protein stability index [1]: 2.23 ± 0.2
protein stability index [2]: 2.61 ± 0.39

LLRSPPPPSARHRAHPPQRPASSG [KCNA3]
protein stability index [1]: 4.42 ± 0.18
protein stability index [2]: 4.62 ± 0.33

HLVQHQHPNSRKSSAGGAKAGQPE [ZNF8]
protein stability index [1]: 4.8 ± 0.18
protein stability index [2]: 4.79 ± 0.16

LTGQKAVKVHGLLKTFVKQTDHIK [GFOD1]
protein stability index [1]: 2.85 ± 0.29
protein stability index [2]: 2.59 ± 0.27

IAQDTCTTTDHSSNPGPVPGSSSG [SPAG8]
protein stability index [1]: 5.23 ± 0.44
protein stability index [2]: 5.26 ± 0.23

SRWVRDPRYREDPCKQCKKKYVKG [FBXO34]
protein stability index [1]: 3.59 ± 0.44
protein stability index [2]: 3.92 ± 0.14

MHRLGEPQARMREENMERIGEEVR [BEX1]
protein stability index [1]: 5.14 ± 0.13
protein stability index [2]: 5.2 ± 0.21

ARMLSSNERDSSEPGNFIPLFTPQ [CDC25A]
protein stability index [1]: 3.85 ± 0.25
protein stability index [2]: 3.96 ± 0.4

YMLFDPKDSVMQQNLVYYRFHRAR [P3H4]
protein stability index [1]: 2.26 ± 0.25
protein stability index [2]: 2.27 ± 0.53

AVYDGSSSVEDLKAKFCSTVANDV [NETO1]
protein stability index [1]: 4.03 ± 0.19
protein stability index [2]: 4.17 ± 0.31

IPIHGKGNFPTMEVKPKDIIHVVK [TENT5D]
protein stability index [1]: 2.86 ± 0.24
protein stability index [2]: 2.93 ± 0.2

ELDLSLSDLNEVPVKELAALPKAT [LRRC59]
protein stability index [1]: 4.4 ± 0.25
protein stability index [2]: 4.49 ± 0.29

SIYDNVPGSILYSSSGDLADLENE [DLC1]
protein stability index [1]: 4.843 ± 0.034
protein stability index [2]: 4.75 ± 0.12

KTSQLSYYYMGFYIHSCPKMKYKG [ATE1]
protein stability index [1]: 2.47 ± 1.2
protein stability index [2]: 2.25 ± 0.66

SERPLEDLRLRLDHLGWVARGTGS [RTN2]
protein stability index [1]: 2.63 ± 0.53
protein stability index [2]: 3.2 ± 0.58

LFLPCLLCYPPAKGCLKLCRRCYD [SPRY1]
protein stability index [1]: 2.36 ± 0.19
protein stability index [2]: 2.45 ± 0.62

DPQLEIAYRGNCKDVSRCVAERKY [SMOC2]
protein stability index [1]: 4.04 ± 0.32
protein stability index [2]: 4.12 ± 0.11

LTTASIIQLGVTPPGYSAWIKEEA [SLC6A17]
protein stability index [1]: 2.6 ± 0.23
protein stability index [2]: 2.82 ± 0.31

YIGFYGKETTNTCILKCNLCSVNI [PDS5B]
protein stability index [1]: 2.98 ± 1.6
protein stability index [2]: 2.96 ± 1

WWNHMHFQHHAKPNCFRKDPDINM [FADS1]
protein stability index [1]: 2.17 ± 0.42
protein stability index [2]: 2.26 ± 0.49

NYCPQQTKITSAFKYINTVISCTI [EDNRA]
protein stability index [1]: 3.3 ± 0.65
protein stability index [2]: 2.77 ± 0.18

LEVNKPKNRYANVIAYDHSRVLLS [PTPRD]
protein stability index [1]: 2.54 ± 0.31
protein stability index [2]: 2.71 ± 0.21

HGAHINLQSLKFQGGHGPAATLLR [RIPK4]
protein stability index [1]: 2.65 ± 0.36
protein stability index [2]: 3 ± 0.047

LESQVQKDGVADSTVISSMPCLLM [C18orf25]
protein stability index [1]: 3.39 ± 0.25
protein stability index [2]: 3.54 ± 0.27

KLPNDSRVERRFHFSQSLTVIHDF [FAF2]
protein stability index [1]: 2.17 ± 0.19
protein stability index [2]: 2.26 ± 0.44

VLSLLSLEPAQRPPLSHIMAQPLC [NEK8]
protein stability index [1]: 2.17 ± 0.15
protein stability index [2]: 2.3 ± 0.099

GETRICKIYDSPCLPEAEAMFAIN [RAD51]
protein stability index [1]: 3.53 ± 0.4
protein stability index [2]: 3.65 ± 0.35

NEVLSSDILPRWAIIGWLLTTCTS [INTS3]
protein stability index [1]: 2.99 ± 0.82
protein stability index [2]: 2.91 ± 0.49

AFMLFRKRLGSMILAFRPRPNYF [GDAP1]
protein stability index (treatment: DMSO, c terminus: native): 2.5 ± 0.53
protein stability index (treatment: MLN4924 1 uM, 8 h, c terminus: native): 2.12 ± 0.47

LFEEEDHVKKLQQKVATLEKRNRQ [CCDC3]
protein stability index [1]: 4.46 ± 0.29
protein stability index [2]: 4.68 ± 0.23

MQVNPISKRMGPMTVVRMDASVQP [RHOBTB1]
protein stability index [1]: 3.48 ± 0.19
protein stability index [2]: 3.43 ± 0.2

NAKKLSMYGVDLHHAKDSEGVEIM [EPB41L3]
protein stability index [1]: 3.66 ± 0.8
protein stability index [2]: 3.61 ± 0.72

SGPRQLLTLYNPTGTALRFRVLCT [MOSPD3]
protein stability index [1]: 2.15 ± 0.48
protein stability index [2]: 2.16 ± 0.27

DLLNVCMRHVEKMCKADLSRNFIE [TRIM29]
protein stability index [1]: 3.09 ± 0.21
protein stability index [2]: 2.87 ± 0.28

QSYPLCIYLINQKWFGRKRTLSAF [SLC22A15]
protein stability index [1]: 2.46 ± 0.47
protein stability index [2]: 2.2 ± 0.61

EPPPKSGPSLVPGKTPTVRAALIC [CD207]
protein stability index [1]: 3 ± 0.15
protein stability index [2]: 3 ± 0.23

FETMAIEIEQLLARLTGVNDKMAE [GOSR1]
protein stability index [1]: 3.06 ± 0.2
protein stability index [2]: 3.15 ± 0.38

PPAADAPVTQIGFEAPPLQGQAAA [TRIM55]
protein stability index [1]: 5.07 ± 0.47
protein stability index [2]: 5.15 ± 0.28

RFLGEGHHRVQENQMDKARRHPQG [CHGB]
protein stability index [1]: 4.5 ± 0.44
protein stability index [2]: 4.62 ± 0.38

AYRCGSGMQMAEDSKSLKTHQTQP [NET1]
protein stability index [1]: 3.94 ± 0.16
protein stability index [2]: 3.22 ± 0.25

KMSLYSEADSGYGSYGGFASAPTT [TRIM9]
protein stability index [1]: 3.15 ± 0.36
protein stability index [2]: 3.18 ± 0.12

CGADVNVRDSDDNSPLHIAALNNH [FEM1C]
protein stability index [1]: 2.9 ± 0.34
protein stability index [2]: 2.83 ± 0.24

TMTNYDEAAMAIASLNGYRLGERV [ELAVL3]
protein stability index [1]: 3 ± 0.35
protein stability index [2]: 3.17 ± 0.31

KMAAVSKASGRFGLLQGTSAETSG [SEPHS2]
protein stability index [1]: 3.94 ± 0.15
protein stability index [2]: 3.88 ± 0.25

RNLYAYIQKLTQIETGENVTGMEL [PTPRD]
protein stability index [1]: 2.41 ± 0.26
protein stability index [2]: 2.29 ± 0.53

DAIGEGKVTLRIRNVRFSDEGGFT [MOG]
protein stability index [1]: 2.88 ± 0.35
protein stability index [2]: 2.84 ± 0.44

SESEQEFLYKTAGGLIYWIGLTKA [CD207]
protein stability index [2]: 2.11 ± 0.59

LEERLQLQFEAEMARLQEEHGDQL [MTUS2]
protein stability index [1]: 5.4 ± 0.32
protein stability index [2]: 5.13 ± 0.17

KPANILLDAHYHVKISDFGLAKCN [RIPK4]
protein stability index [1]: 2.33 ± 0.22
protein stability index [2]: 2.49 ± 0.23

LRNIQGLFAPLKLQMEFKAVQQVQ [POMP]
protein stability index [1]: 2.25 ± 0.44
protein stability index [2]: 2.28 ± 0.11

TAILIECGADVNVRDSDDNSPLHI [FEM1C]
protein stability index [1]: 3.43 ± 0.34
protein stability index [2]: 3.5 ± 0.3

AMEPDRKAAVSHWQQQSYLDSGIH [CTNNB1]
protein stability index [1]: 3.91 ± 0.31
protein stability index [2]: 3.95 ± 0.32

TEVLRNMGFAAKAMKSVHENMDLN [CHMP4C]
protein stability index [1]: 3.3 ± 0.34
protein stability index [2]: 3.46 ± 0.16

GFFLLQLANHTGYIKVDWQRVEKD [FUNDC2]
protein stability index [1]: 2.34 ± 0.69
protein stability index [2]: 2.11 ± 0.37

DLLPTFRHTLQKLTCEFNNNHESL [FBXO39]
protein stability index [1]: 2.27 ± 0.22
protein stability index [2]: 2.35 ± 0.48

LIAEVMGEDIPEKIKDEVHPEVKC [C8orf76]
protein stability index [1]: 4.51 ± 0.58
protein stability index [2]: 4.31 ± 0.14

IAQAEEQARKRQEEREKEAAEQAE [SMARCE1]
protein stability index [1]: 5.24 ± 0.12
protein stability index [2]: 5.892 ± 0.034

LDLILAILALELICSLICLLIYTV [TMEM192]
protein stability index [1]: 2.89 ± 0.55
protein stability index [2]: 3 ± 0.5

VGERLQDTHSWKSELQREMEALAA [TEKT4]
protein stability index [1]: 3.9 ± 0.62
protein stability index [2]: 3.92 ± 0.56

LIERERSALGPNVTKITLESFLAW [ZC3H15]
protein stability index [1]: 2.19 ± 0.47
protein stability index [2]: 2.49 ± 0.14

AAHLALLLLCGTISLRVYRKVLQA [RTN2]
protein stability index [1]: 2.49 ± 0.33
protein stability index [2]: 2.51 ± 0.73

SGLFNHRGIHNIQKRYHCKECGKV [ZSCAN9]
protein stability index [1]: 3.08 ± 0.41
protein stability index [2]: 3.13 ± 0.35

LMLAGMGLHYIAFRKVKQMHLNFM [DNAJC4]
protein stability index [1]: 2.45 ± 0.82
protein stability index [2]: 2.41 ± 0.33

SFVTGSHVGELIIWDALDWTMQAY [WDR41]
protein stability index [1]: 2.9 ± 0.72
protein stability index [2]: 3.21 ± 1.5

PPVVAHYDMSDTNSDPEVVNVDNL [C18orf25]
protein stability index [1]: 5.43 ± 0.18
protein stability index [2]: 5.46 ± 0.31

DSFDKFEFCEPAFVVGNCLQIASD [PCMTD1]
protein stability index [1]: 3.31 ± 0.072
protein stability index [2]: 3.24 ± 0.22

LPHPKSMLQATAEANNLAAAASAK [ATL3]
protein stability index [1]: 4.86 ± 0.27
protein stability index [2]: 5.07 ± 0.19

RLKLLKDREVDAATSATSHTRSLN [FBF1]
protein stability index [1]: 4.31 ± 0.32
protein stability index [2]: 4.41 ± 0.16

GNNLHNASIPEHLAYGSVITVKNL [POMT2]
protein stability index [1]: 3.05 ± 0.37
protein stability index [2]: 3.02 ± 0.28
